The assay has as its target human CD3 on T cells (human) (UniProt P07766). Kind of assay: FACS on Jurkat cells.

Data on one substance can be found in US20260152577A1.

The substance OKT3-hIgG1 (antibody) came in with an affinity of 0.27 nM.
